2 molecules from publication PMC4678811, “Assembly and dynamics of the U4/U6 di-snRNP by single-molecule FRET” (Nucleic Acids Research, 2015) can be followed below.

The test system of data set [1] is Prp31 (Saccharomyces cerevisiae). The data set is described as follows: EMSA. The following applies: apparent; Hill 1.9; EMSA: 2 nM RNA, 10 mM K-HEPES pH 7.5, 100 mM KCl, 0.01% NP-40, 20 ug E. coli tRNA in 100 ul, on ice 60 min, 4% native gel 0.5X TBE 4 C; smFRET: 10 mM Tris-HCl ….
Data set [2] relates to LSm2-LSm8 complex (Saccharomyces cerevisiae). The data set can be described thus: EMSA. The conditions noted are these: apparent; Hill 1.7; EMSA: 2 nM RNA, 10 mM K-HEPES pH 7.5, 100 mM KCl, 0.01% NP-40, 20 ug E. coli tRNA in 100 ul, on ice 60 min, 4% native gel 0.5X TBE 4 C; smFRET: 10 mM Tris-HCl ….
Data set [3] deals with Sm protein complex (SmB, D1, D2, D3, E, F, G) (Saccharomyces cerevisiae). The data set can be described thus: EMSA. The following applies: apparent; Hill 3.5; EMSA: 2 nM RNA, 10 mM K-HEPES pH 7.5, 100 mM KCl, 0.01% NP-40, 20 ug E. coli tRNA in 100 ul, on ice 60 min, 4% native gel 0.5X TBE 4 C; smFRET: 10 mM Tris-HCl ….
Data set [4] relates to Snu13 (Saccharomyces cerevisiae). The data set is described as follows: EMSA. The following applies: apparent; Hill 1; EMSA: 2 nM RNA, 10 mM K-HEPES pH 7.5, 100 mM KCl, 0.01% NP-40, 20 ug E. coli tRNA in 100 ul, on ice 60 min, 4% native gel 0.5X TBE 4 C; smFRET: 10 mM Tris-HCl ….
In data set [5] the test system is Prp3/4 (Prp3-Prp4 complex) (Saccharomyces cerevisiae). The data set is described as follows: EMSA. The conditions noted are these: apparent; Hill 2.6; EMSA: 2 nM RNA, 10 mM K-HEPES pH 7.5, 100 mM KCl, 0.01% NP-40, 20 ug E. coli tRNA in 100 ul, on ice 60 min, 4% native gel 0.5X TBE 4 C; smFRET: 10 mM Tris-HCl ….
Data set [6] concerns the molecule itself. The data set can be described thus: native MS; minor peaks of the Mono-Q column after the main peak of the purified LSm2–LSm8 complex.

“And” between values parts separate entries of the source, which are not always exact repeats. Equal entries are not always repeated.

With U4/U6 snRNA duplex (full length), the Kd in data set [1] was determined as 243 nM; in data set [2], 5 nM; in data set [3] it was 89 nM; in data set [4], 17 nM; in data set [5], 57 nM.

B1: LSm2–LSm8 complex (complex, Saccharomyces cerevisiae)
chain 1: MLFFSFFKTLVDQEVVVELKNDIEIKGTLQSVDQFLNLKLDNISCTDEKKYPHLGSVRNIFIRGSTVRYVYLNKNMVDTNLLQDATRREVMTERK
chain 2: METPLDLLKLNLDERVYIKLRGARTLVGTLQAFDSHCNIVLSDAVETIYQLNNEELSESERRCEMVFIRGDTVTLISTPSEDDDGAVEI
chain 3: MLPLYLLTNAKGQQMQIELKNGEIIQGILTNVDNWMNLTLSNVTEYSEESAINSEDNAESSKAVKLNEIYIRGTFIKFIKLQDNIIDKVKQQINSNNNSNSNGPGH
chain 4: MSLPEILPLEVIDKTINQKVLIVLQSNREFEGTLVGFDDFVNVILEDAVEWLIDPEDESRNEKVMQHHGRMLLSGNNIAILVPGGKKTPTEAL
chain 5: MSGKASTEGSVTTEFLSDIIGKTVNVKLASGLLYSGRLESIDGFMNVALSSATEHYESNNNKLLNKFNSDVFLRGTQVMYISEQKI
chain 6: MHQQHSKSENKPQQQRKKFEGPKREAILDLAKYKDSKIRVKLMGGKLVIGVLKGYDQLMNLVLDDTVEYMSNPDDENNTELISKNARKLGLTVIRGTILVSLSSAEGSDVLYMQK
chain 7: MSATLKDYLNKRVVIIKVDGECLIASLNGFDKNTNLFITNVFNRISKEFICKAQLLRGSEIALVGLIDAENDDSLAPIDEKKVPMLKDTKNKIENEHVIWEKVYESKTK
notes: LSm2, Saccharomyces cerevisiae, untagged; LSm3, Saccharomyces cerevisiae, untagged; LSm4, Saccharomyces cerevisiae, amino acids 1-106, untagged; LSm5, Saccharomyces cerevisiae; LSm6, Saccharomyces cerevisiae, untagged; LSm7, Saccharomyces cerevisiae, untagged; LSm8, Saccharomyces cerevisiae; Both tags are TEV-cleavable; also called LSm 2–8 complex; LSm complex; source: S. cerevisiae BCY123, …
Take B1: the “stoichiometry N” value in data set [6] is 2 and 3.
